Laboratory results from patent US8785600B2, “Anti-GCC antibody molecules and related compositions and methods” (Millennium Pharmaceuticals, Inc., priority 2009, dated 2014).

B1: 3G1: Mouse anti-GCC hybridoma mAb, IgG1,k; VH SEQ ID NO:2, VL SEQ ID NO:4 (antibody, V domains shown)
VH: QVQLKESGPGLVAPSQSLSITCTVSGFSLSRNAISWVRQPPGKGLEWLGVIWTGGGTNYNSALKSRLSIRKENSKSQVFLKMNSLQTEDTARYFCARSGYDGFDYWGQGTLVTVSA
VL: QIVLTQSPAIMSASPGEKVTMTCSASSSVNYMHWYQQKSGTSPKRWIYDTSKLASGVPARFSGSGSGTSYSLTITSMEAEDAATYYCQQWSGNPYTFGGGTKLEIK
B2: Abx-198: Human anti-GCC SLAM mAb, IgG1,k; VH SEQ ID NO:42, VL SEQ ID NO:44 (antibody, V domains shown)
VH: EVQLLESGGGLVQPGGSLRLSCAASGFTFSSYAMSWVRQAPGKGLDWVSDISGSGGSTYYADSVKGRFTISRDNSKNTLYLQMHSLSAEDTAIYYCAKRRWQGYFDLWGRGTLVTVSS
VL: EIVLTQSPGTLSLSPGERATLSCRARQRVDSRYLAWYQQKPGQAPRLLIYGASSRATGIPDRFSGSGSGTDFTLTISRLEPEDFAVYYCQQYGSSPLTFGGGTKVEIK
B3: 8F1: Mouse anti-GCC hybridoma mAb, IgG1,k; VH SEQ ID NO:10, VL SEQ ID NO:12 (antibody, V domains shown)
VH: QVQLQQPGAELVKPGASVQMSCKASGYIFTGYWMYWVKQRPGQGLEWIGRIHPSDSNTNYNQKFKGKATLTVDKSSSTAYMQLSSLTSEDSAVYYCTHALAYWGQGTLVTVS
VL: DVVLTQTPLTLSITIGQPASISCKSSQSLLYSNGKTYLSWLLQRPGQSPKRLIYLVSQLDSGVPDRFTGSGSGTDFTLKISRVEAEDLGVYYCVQGTHLFTFGSGTKLEIK

What follows are molecules tested on GCC 20-mer peptides (aa 1-440) (assay: Epitope mapping by peptide array). Conditions: 20-mer peptides with 15 aa overlap, GCC aa 1-440.
Type: binding, human
Excerpt: Multiple strategies were initiated to identify epitopes. Peptide array. 20-mer peptides, with 15 aa overlap were generated, covering the extracellular domain (ECD) into the transmembrane domain of GCC (aa 1-440). Peptides were synthesized and provided as arrays, immobilized on glass slides. Arrays were hybridized with each of the anti-GCC antibodies to determine if linear peptides were sufficient for binding. […] The sequence, […] (SEQ ID NO:225) is spanned by these peptides. A region of overlap among the peptides is […] (SEQ ID NO:314). […] The sequence, […] (SEQ ID NO:226), and the sequence […] (SEQ ID NO:315) overlaps the two peptides.

Row | Molecule | Peptides bound in peptide array
1 | B1 | peptides 55, 56 and 57
2 | B2 | peptides 55 and 56
3 | B3 | peptides 55, 56 and 57
